Assay results taken from the DeepSol protein solubility set.

test: soluble on expression in E. coli; label from the status in PepcDB or PDB records

Sequence	soluble on expression in E. coli
MGSDKIHHHHHHMERIEAGMSVMTLKKQTYRVIAVINQGQELLVRAHEPETADIEIIPVTTVVQVTEQNSTGDAAVALDTVTVVGERYVDDIVATLTTLRVGMAVLLQRESGNQYDDNAISVWTLQHAKLGYIARYQNQPYATLMDQGQRLYGIVTVLDQQKQHLELMLWRTTAVPSPIEALQIRQRLAKPRTNLGAVPTHSLQTPLGTIVMMCNGHPIKYQQVPLSPWLTPADELHVTKRYLLTPDWSQVPPDSLITCQVTAKADVVQRWQNEHISAAVLTNASSFYVVGISAQTKTGLNDNLVDDAAQPAVIYRVGQVSAHMQAGFMVSWAPFGDPRVQPALKLALHFSSQPLVPYHPVTPSRTNATFTQQELAALLVSALPNYQGGQRLEPSVTTITVEKLRQTLGDQTYHALANYQRHVQLVAGSTEGVNETLLQALIHAVTYHELTTMHYYQPTVGMVDQVIYPIQLFSTTTKDEDDAQLVGCLALYNYETFEIQQVPLTAIARIAIIADPEHPQTTPETESPDWLRIFLHGWNDDF	not soluble
MGSDKIHHHHHHMPRLLLVTNDFPPTVGGIQSYLRDFVALLPPEDVVVFASTQDPVAAREFDKSVPYKVVRYSSKLMLPTPQVKKLMVDLIKSEGVSTVWFGAAAPLAVMAPAARAAGAIQIISTTHGHEVGWSMVPGARSVLRFIGQHSDVVTYISDYTLRRFRRAFGEHPKFVHLPSGVDVERFYPVDEKQKFELRDQLGWAEKDKVIVCTSRLVPRKGQDTLIKAFPEIVQRCSEARLVIVGEGRIEGKLRRLAARDQKASSRISFEGRVSEEKMGMMLRGADVFAMPCRTRGGGLDVEGLGIVFLEAQACGVPVIAGDSGGAPETVTPASGVVVNGRDSSSVAHVIVDLVQQPAALMSMGHAGRQHVVDHWTWEIMGARLKSLIL	not soluble
AEAAPCETADGTYHIALPEAENPPVLIFLHGHGGEGAATLRNARLVAPLLARGWAVIAPDGQSRAPGRPRSWTFFPGWEGRDEPAFLAQVLGEASARFGLDADRAVLGGFSAGAFMVTYLACATPGAYRAYVPVSGGFWRPQPDRCAGPVHLFQTHGWADPVVPLEGRFLGGGRFQQGDIFAGLELWRQTNGCVEHKPDGFDQTGPFLRRRWQGCSGGSLEFALFPGGHTVPEGWADMMADWVEAL	not soluble
MNRMEYNPIKKVVSGNYAAAYAALHARVQVVAAYPITPQTSIIEKIAEFIANGEADIQYIPVESEHSAMAACIGASATGARVFTATSAQGLALMHEMLHWAAGSRLPIVMVNVNRAMAPPWSVWDDQTDSLSQRDTGWMQFYAENNQEVYDGVLMAYKVAETVNIPTMIIESAFILSHTYEVVNMIPQELVDEFLPPRKPLYTLTDFENPIAVGALATPADYYEFRYKIAKAHEEAKKVIKSVGKEFGERFGRDYSKMIETGYIEDADFVFMGMGSLMGTVKEAVDLLRKEGYKVGYAKVRWFRPFPKEELLEIAESVKGIAVLDRNFSFGQEGILFTEAKGALYNTGVRPIMKDYIVGLGGRDFTVRDVKAIAEDMKKVVESGKLDKEIEWYHLKR	soluble
MAIQHPDIQPAVNHSVQVAIAGAGPVGLMMANYLGQMGIDVLVVEKLDKLIDYPRAIGIDDEALRTMQSVGLVDNVLPHTTPWHAMRFLTPKGRCFADIQPMTDEFGWPRRNAFIQPQVDAVMLEGVSRFPNVRCLFSRELEAFSQQDDEVTLHLKTAEGLREIVKAQWLVACDGGASFVRRTLNVPFEGKTAPNQWIVVDIANDPLSTPHIYLCCDPVRPYVSAALPHAVRRFEFMVMPGETEEQLREPQNMRKLLSKVLPNPDNVELIRQRVYTHNARLAQRFRIDRVLLAGDAAHIMPVWQGQGYNSGMRDAFNLAWKLALVIQGKARDALLDTYQQERRDHAKAMIDLSVTAGNVLAPPKRWQGTLRDGVSWLLNYLPPVKRYFLEMRFKPMPQYYGGALVREGEAKHSPVGKMFIQPKVTLENGDVTLLDNAIGANFAVIGWGCNPLWGMSDEQIQQWRALSTRFIQVVPEVQIHTAQDNHDGVLRVGDTQGRLRSWFAQHNASLVVMRPDRFVAATAIPQTLGKTLNKLASVMTLTRPDADVSVEKVA	not soluble
MERKKAVVLLSGGLDSSTVLAYAISLGYEVHAISFDYGQRHSREMNSSEELAKYYGVDRKIVHVDLRSIGKSALTDDIEVPSRDLESIPEEIPVTYVPARNTIFLSIAAAYAESIGSTDIFIGANAIDYSGYPDCRPEYFNAMEKALTLGTEIGLRKGMHINVPLQYLTKADIIRMGLKLGVPYEKTWSCYKGGEKACGECDSCLLRLKGFMEAGSEDPLEYEKYPTFYKDYIEKRKK	soluble
MGSDKIHHHHHHMINLSKKLIRQVAQANAKFGLIKDGDRVLLGLSGGKDSLALAHLLNRMQAHAPFKFELEAVTLSYGMGEDYSHLHAHCEEHGIKHSVLDSNIYEVSGDTIRENSSFCSYFSRMRRGALYTYALEKGFNKLAIAHHLDDAAESFFMNFIHNGALRTLAPIYQSKRGITVIRPLIFVRERQLRDNATQNELSVIGNEFCPGMKLSEKNVKFPHAREEAKQLLANLEKDHPKLFTSLKTAFANLHTESFWLQKA	not soluble
MTKNEIRKYILHKMKNFNKAEKRKADTWLRNQFFATEEYKEANAIALVLSFNHEVDTFSIIEQALMDHKRIFVPKMDYLNHQMTFKEIFNLKDIDVDNKGIYYPTSKGETTNNLDLIVVPGVGFQDDGYRIGYGGGYYDRFLANYQTKTISLLYDFQITSFEPESFDQPVDKLIIYQSALEHHHHHH	soluble
MSNTDNSDKNTKPTGYRPPQTDFNTEFGNNLDYPRLGSVSFRRGTLTDNQESLWDANWPILGKDLTDAEDQRIDVAEWFGRCGHKTILEIGSGTGTSTAAMAPLEADTNIIAVELYKPGLAKLLGAVVRGDISNVRMIRGDGVEVLTRMLPEESLDGVRIYFPDPWPKARHHKRRIIQSGVLNLIASRLKPGGVLHVATDHADYAEWITELVNVEPQLEFMGWPWDECPQLTDRQVITKFEGKGLDKDHTITEFLWRRK	not soluble
SADKEKKKKESILDLSKYIDKTIRVKFQGGREASGILKGFDPLLNLVLDGTIEYMRDPDDQYKLTEDTRQLGLVVCRGTSVVLICPQDGMEAIPNPFIQQQDA	soluble
MSIPVPMETGANSEAWKKANEALMKIQGGMSKGLNASNGNNNTGQNSWMNNSFSFPNPPSAYGQFGGGFHPSTWGSGPIVPPPPPQQSAVNATAQAAYNQASFNYAPPPPPQNWNNGYGRGRGGGANNWNQQQRPQQFQPFALNRKNNSSAFPHLTSTFVPQGGGPQPLMGVGRGRGVPAPGPAKPPPPSAQRYMERAFEAANTVEDRQKTQEYLQKRLFPMLNAGNAHMVNWDNEPLPHEKNYELAPAWTPANKLPHQANGFNRKKSPSRRRSDEMSNSGAAGGGGQMKRARRDSDGASSDSDNSDPLEKMHFSSMNQKKTKAQKKAEKAARKAAKKLQKQQTPQKVKNAWKVAGGDTEARREDRARRFAETLYNVSKPSVSVPQHYFRRGQVIRGTCQNIEKSFFRLTAAPNPSEVRPLEVLRLSLQNVRDKYRARAEYSYLTSQMRSIRQDLTVQVIRNEFTVEVYEINARISLENADREEFNKCQSQLKLLYSEIENCANQAEFVAYRLLYYIAMDNQIDINALLRELTPELKENDCVEFALNVRKAVTMNNYVKFFRLFKNAPRMCPYIMDLFVDRERKKALGIITKAFRPTITYKLIAEFLSMKESTLIDWLEEELKWTDVEVGGTFDPKIPRNI	not soluble
LITFRCRSYANVTMFGDIALEMIKMMGHSGTVPGSISAQDVPDALSKLTSALSAKNAAEENLPTDVDVDEKEEQVEPAVSLGRRAFPLIELLKSAIKEECEVMWD	not soluble
MGSDKIHHHHHHMIRIENISKQNSHRLLFIEASAALNKGEKIGLVGPNGAGKTTLFRMITGEELPDEGQVATEKGVTIGYFNQDVGEMSGRSAVAEVMDGAGPVSTVAAELRELEGAMSDPDRMDEMDAIIERYGEVQARYEELDGYALEGRAREVLDGLSFSQEMMDGDVGKLSGGWKMRVALARILLMRPDVMLLDEPSNHLDLESLIWLESFLKNYDGALLMTSHDREFMNRIVTKIIEIDGGSLTSYSGDYGFYEGQRAQNEKQQQAQFERQQAMLAKEIKFIERFKARASHAAQVQSRVKKLDKIDRVEPPRRRQTVAFDFLPAPRSGDDVINIKNVHKAYGSRTIYQGLDFMVRRRERWCIMGINGAGKSTLLKLVAGTTEPDQGTVSIGASVKLGYFAQHAMDVLDGDSTVLQWLEESFPKAGQAPLRALAGCFGFSGDDVEKRCRVLSGGEKARLVMAAMLFDPPNLLVLDEPTNHLDLDTKEMLIKALSAYEGTMLFVSHDRHFLAALSNRVLELTPDGIHQYGGGYTEYVERTGQEAPGLHAA	not soluble
MMIDPELRPAFLPAGKLRAAINLGNPILAGTDAAGQAVGVSVDLAREFARRLNAGIELRVFDTAGQSVDAVTREEADIGFFAIDPARGAGIAFTGPYVLIEGAYLVRDDSPLQANEDVDRAGKRVTVGKGSAYDLHLTRALQHAEIVRAASSQAVVDTFLARRLDVAAGVKQQLQADARRVGGVRLLPGRFMVIRQAMGLPKARGDAAAACLDAFVESMKGNGFVAQALARHGLEHHHHHH	not soluble
MNEHHQPFEEIKLINANGAEQWSARQLGKLLGYSEYRHFIPVLTRAKEACENSGHTIDDHFEEILDMVKIGSNAKRALKDIVLSRYACYLVVQNGDPAKPVIAAGQTYFAIQTRRQELADDEAFKQLREDEKRLFLRNELKEHNKQLVEAAQQAGVATATDFAIFQNHGYQGLYGGLDQKAIHQRKGLKKNQKILDHMGSTELAANLFRATQTEEKLKRDGVNSKQQANTTHFDVGRKVRQTIQELGGTMPEELPTPQVSIKQLENSVKITEKK	soluble
MGSDKIHHHHHHMKIQSLFFTLYGDYVKDSGGTISSKSLIVIFKEFGFSEGAIRAGLHRMKKAGLIVGIKGENRKVSYKLSEKGMLRLLEGTRRVYEKVRRRWDNKWRIVVYNIPENNRELRDKLRRELKWLGFGMLAQSTWISPNPIEDTLKNFINDHYGSSNGIQVDIFVANYLGEPKGLVEKCWNLSEVEQAYRAFLEKWTGVLEKVSSLKSNEAFVTRILLVHEYRKFLNIDPDLPEDLLPPNWIGYTAYDLFMKLREELTPKANEFFYKVYEP	not soluble
MGSDKIHHHHHHMRILGIETSCDETGVAIYDEQRGLIANQLYSQIEMHADYGGVVPELASRDHIRKTLPLIQAALKEANLTASEIDGIAYTAGPGLVGALLVGATIARALAYAWNVPALAVHHMEGHLMAPMLEENPPEFPFIALLISGGHTQLIKVAGVGEYEILGESIDDAAGEAFDKTGKLLGLDYPAGVALSQLAEKGTPNRFVFPRPMTDRPGLDFSFSGLKTFAANTINAQLDENGQLNEQTRCDIAHAFQQAVVDTIIIKCKRALQQTGYSRLVMAGGVSANKQLRAELATMMQALKGQVYYPRPQFCTDNGAMIAYTGFIRLKKGEKTDLSVSVKPRWPMTTLLKLSAHHKV	not soluble
MSLQAAKEVCLWPLHEREPDTTWSRGPLVLLGDAGHPMRPHMAQGAAMAIEDAAVLVRCLRAYGAAAGAAYDHYQQTRAERVAQVQKVSSENSWMRTPTDPEWVFSYDALLAPEGHHHHHH	not soluble
GSTIAPEEHYTPEEASSREETAWDTAAEEVELLAADGAVHNQELFLECTTSPLIFASAMLNFGVHQILDTLCELAPQPHGRESDERAVEAATGAFDSSREVTDEFSGVVFKVQAGMDKNHRDSLAFMRVVSGEFDRGMQVTHAQSGRSFSTKYALTVFGRTRSTVESAFPGDIVGLVNAGSLAPGDTIFAGRKVQYPPMPQFAPEHFRTLRAKSLGKYKQFRKALDQLAAEGVVQILKNDARGDAAPVMAAVGPMQFEVMMARMQNEYNVETVADPIPYSVARRTTPETATELAKQRGVEIFTRTDGELVALFGDKWKLAFIEKEHPEFELLPMVAD	not soluble
